B1: FADD (other, UniProt Q13158 1-208, looked up)
chain: MDPFLVLLHSVSSSLSSSELTELKFLCLGRVGKRKLERVQSGLDLFSMLLEQNDLEPGHTELLRELLASLRRHDLLRRVDDFEAGAAAGAAPGEEDLCAAFNVICDNVGKDWRRLARQLKVSDTKIDSIEDRYPRNLTERVRESLRIWKNTEKENATVAHLVGALRSCQMNLVADLVQEVQQARDLQNRSGAMSPMSWNSDASTSEAS
notes: also called Flag-tagged FADD; AU1-tagged FADD
B2: caspase-3 (enzyme, UniProt P42574 1-277, looked up)
chain: MENTENSVDSKSIKNLEPKIIHGSESMDSGISLDNSYKMDYPEMGLCIIINNKNFHKSTGMTSRSGTDVDAANLRETFRNLKYEVRNKNDLTREEIVELMRDVSKEDHSKRSSFVCVLLSHGEEGIIFGTNGPVDLKKITNFFRGDRCRSLTGKPKLFIIQACRGTELDCGIETDSGVDDDMACHKIPVEADFLYAYSTAPGYYSWRNSKDGSWFIQSLCAMLKQYADKLEFMHILTRVNRKVATEFESFSFDATFHAKKQIPCIVSMLTKELYFYH
notes: also called caspase-3 precursor

Assays:
[1] = target: T1, Casper (192-480) (human, UniProt O15519 192-480); test: co-immunoprecipitation in 293 cells
T1 construct: also called C-terminal protease-like domain of Casper

[2] = target: T2, CrmA (UniProt P07385 1-341); test: co-transfection and co-immunoprecipitation in mammalian cells
T2 construct: also called Myc-CrmA

[3] = target: T1, Casper (192-480); test: anti-Flag immunoprecipitation, caspase-3 immunoblot, 293 cells

T1 sequence (O15519 192-480): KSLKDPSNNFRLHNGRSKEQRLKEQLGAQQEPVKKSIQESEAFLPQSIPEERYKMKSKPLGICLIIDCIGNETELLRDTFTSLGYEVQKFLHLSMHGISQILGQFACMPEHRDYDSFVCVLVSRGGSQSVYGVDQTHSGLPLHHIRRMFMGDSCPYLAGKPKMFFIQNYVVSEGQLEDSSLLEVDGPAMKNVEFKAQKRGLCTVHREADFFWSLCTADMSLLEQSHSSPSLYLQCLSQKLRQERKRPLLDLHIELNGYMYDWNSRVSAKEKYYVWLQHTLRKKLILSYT

Row | Binder | binding result [1] | binding result [2] | binding result [3]
1 | B1 | no binding | – | –
2 | B2 | – | no binding | binds

Reference: patent publication US7528244 (Amgen, dated 2009)
